In the Human Domainome abundance scans (Beltran et al. 2025):

B1: Apoptosis-associated speck-like protein containing a CARD, residues 114 to 194; numbered along this chain, Q9ULZ3 (parent)
chain: FIDQHRAALIARVTNVEWLLDALYGKVLTDEQYQAVRAEPTNPSKMRKLFSFTPAWNWTCKDLLLQALRESQSYLVEDLER

Variants of: B1
Experiment: abundance fitness (aPCA) (normalised: wild type 0, dead -1); higher = more abundant; growth selection in yeast, the domain comes from the species named
Settings: Homo sapiens

Abundance fitness, by site and new letter:
Y33: E -0.59 | G -0.69 | A -0.1 | V 0.136 | C 0.121 | F -0.277 | T -0.188 | Q -0.546 | M -0.189 | K -0.342 | S -0.376 | L -0.204 | P -0.654 | W -0.524 | I -0.097
V36: P -0.89 | D -0.79 | G -0.691 | N -0.823 | Y -0.973 | R -0.833 | K -0.325 | S -0.334 | L -0.846 | C 0.04 | M -0.837 | W -0.74 | A -0.46 | E -0.801 | F -0.548 | T -1.01 | I -0.143 | H -0.819
Y24: I -0.395 | A -0.254 | Q -0.217 | D -0.157 | G -0.483 | N -0.078 | P -0.598 | T -0.654 | F -0.594 | L -0.035 | H 0.067 | W -0.301 | K 0.255 | M -0.501 | V -0.054 | S -0.319 | R 0.109
A35: S -0.08 | K -0.224 | P -0.664 | L -0.218 | Q -0.011 | N -0.851 | E -0.064 | I -0.862 | G -0.472 | R -0.491 | V -0.365 | F -0.84 | W -0.957 | T -0.348
D30: C -0.539 | A -0.165 | S -0.249 | T -0.193 | Q -0.199 | H 0.094 | R -0.254 | N -0.325 | G -0.545 | P -0.213 | V -0.339 | K -0.416 | I -0.309 | Y -0.293 | L -0.097 | W -0.26 | E -0.013
L19: F -0.781 | R -0.906 | D -0.395 | W -0.643 | N -0.704 | Q -0.439 | P -0.787 | G -0.827 | Y 0.243 | T -0.912 | E -0.882 | A -0.319 | S -0.853 | I -0.122 | K -0.922 | V -0.051 | M -0.787
A22: G -0.4 | R 0.094 | K 0.331 | H -0.116 | N -0.08 | T -0.146 | S -0.057 | I 0.126 | Q 0.063 | P -1 | W -0.183 | V -0.476 | L -0.135 | C -0.127 | Y -0.004 | D -0.302 | M -0.183
E39: C -0.088 | A -0.474 | F -0.714
Q32: R -0.917 | D -0.842 | E -0.276 | W -0.873 | G -0.725 | P -0.941 | T -0.507 | F -0.829 | C -0.68 | A -0.911 | I -0.772 | S -0.598 | V -0.862 | N -0.873 | L -0.95 | Y -0.891
L28: V -0.734 | R -0.871 | P -0.878 | F -0.896 | N -0.805 | Q -0.931 | S -0.812 | I -0.119 | M -0.767 | Y -0.783 | A -0.732 | W -0.798 | D -0.935 | E -0.817 | K -0.807
A38: K -0.088 | W -0.861 | P -0.935 | E -0.15 | F -0.312 | M -0.11 | T -0.552 | Y -1.08 | L -0.176 | S -0.056 | N -0.308 | V -0.419 | Q -0.179 | I -0.413 | D -0.258 | H -0.226 | C -0.297
V27: G -0.419 | S -0.583 | L -0.65 | D -0.904 | C 0.002 | E -0.731 | Q -0.613 | M -0.722 | F -0.413 | I -0.392 | A -0.21 | K -1.09 | W -0.734 | T -0.675 | R -0.909 | H -0.764
E31: N -0.327 | Q -0.38 | P -0.735 | C -0.832 | L -0.461 | T -0.465 | R -0.238 | A -0.252 | M -0.693 | G -0.469 | F -0.82 | D -0.161 | H -0.823 | Y -0.477 | I -0.581 | K -0.65 | S -0.263 | W -0.463
G25: T -0.81 | H -0.213 | C -0.582 | P 0.191 | R -0.445 | F -0.931 | Q -0.41 | Y -0.55 | L -0.45 | I -0.543 | S -0.701 | A -0.43 | D -0.255 | W -0.325 | K 0.025 | V -0.779
D21: K -0.287 | E -0.091 | G -0.331 | P -0.987 | C -0.466 | I -0.69 | R -0.33 | T -0.313 | A -0.477 | Y -0.805 | W -0.496 | L -0.695 | F -0.801 | N -0.264 | Q -0.115 | M -0.292 | H -0.162
W18: R 0.076 | S 0.163 | M 0 | Q 0.174 | T 0.053 | Y 0.186 | V 0.107 | P 0.174
L23: M -0.392 | C -0.444 | F -0.737 | S -0.879 | A -0.753 | D -0.962 | T -0.943 | E -0.719 | V -0.611 | R -0.83 | N -1.06 | Y -0.586 | K -0.645 | G -0.911 | H -0.698 | I -0.564 | W -0.939 | Q -0.739
Q34: W -0.123 | V -0.417 | K -0.143 | P -0.817 | H 0.05 | E -0.052 | T -0.285 | R -0.003 | S -0.388 | N -0.004 | C -0.3 | I -0.81 | L -0.295 | M -0.329 | G -0.599 | F -0.433 | D -0.185 | Y -0.332
R37: A 0.039 | N -0.1 | H -0.252 | I 0.063 | C -0.208 | F -0.509 | Q -0.008 | G -0.479 | V -0.148 | W -0.373 | M 0.136 | E -0.304 | T -0.182 | P -0.792 | D -0.219 | Y -0.118 | L 0.067 | K -0.111 | S -0.104
K26: E -0.323 | L -0.438 | P -0.369 | T 0.014 | H -0.422 | W -0.481 | Y -0.658 | I -0.094 | Q -0.249 | A -0.371 | G -0.513 | N -0.314 | C -0.262 | M -0.563 | F -0.47 | R -0.178 | S -0.081 | V -0.106 | D -0.483
T29: S -0.208 | I -0.825 | D -0.626 | A -0.585 | N -0.338
L20: D -0.518 | G -0.901 | F -0.621 | P -0.543 | R -0.917 | Y -0.626 | S -0.583 | C 0.005 | M -0.458 | Q -0.854 | N -0.797 | I -0.179 | V -0.388 | E -0.723
